Laboratory results reported in patent US20070224194A1, “Methods for Inhibiting Angiogenesis and/or Lymphangiogenesis” (LUDWIG INSTITUTE FOR CANCER RESEARCH, priority 2004, published 2007).
Where a chain is given by its changes, count along the chain named.

Assays:
[1] = target: VEGFR-2 (as used in the biosensor analysis) (UniProt P35968); assay: SPR biosensor, 1:1 Langmuir model; reference VEGF-DSSTS.IISS on the same receptor
[2] = target: VEGFR-3 (as used in the biosensor analysis) (UniProt P35916); assay: as above
[3] = target: VEGFR-2 (as used in the biosensor analysis) (UniProt P35968); assay: SPR; conditions: ligand
[4] = target: VEGFR-3 (as used in the biosensor analysis) (UniProt P35916); assay: SPR; conditions: ligand
[5] = target: T1, VEGFR-1-Ig (human, UniProt P17948 27-758); assay: pull-down with receptor-Ig on protein-A sepharose from LoVo conditioned medium, Western blot
T1 construct: extracellular domain; R&D Systems is named as its source; used as a negative control; also called soluble fusion protein of the extracellular domain of human VEGFR-1 and the Fc portion of human IgG; not shown: Fc portion of human IgG
T1 sequence (P17948 27-758): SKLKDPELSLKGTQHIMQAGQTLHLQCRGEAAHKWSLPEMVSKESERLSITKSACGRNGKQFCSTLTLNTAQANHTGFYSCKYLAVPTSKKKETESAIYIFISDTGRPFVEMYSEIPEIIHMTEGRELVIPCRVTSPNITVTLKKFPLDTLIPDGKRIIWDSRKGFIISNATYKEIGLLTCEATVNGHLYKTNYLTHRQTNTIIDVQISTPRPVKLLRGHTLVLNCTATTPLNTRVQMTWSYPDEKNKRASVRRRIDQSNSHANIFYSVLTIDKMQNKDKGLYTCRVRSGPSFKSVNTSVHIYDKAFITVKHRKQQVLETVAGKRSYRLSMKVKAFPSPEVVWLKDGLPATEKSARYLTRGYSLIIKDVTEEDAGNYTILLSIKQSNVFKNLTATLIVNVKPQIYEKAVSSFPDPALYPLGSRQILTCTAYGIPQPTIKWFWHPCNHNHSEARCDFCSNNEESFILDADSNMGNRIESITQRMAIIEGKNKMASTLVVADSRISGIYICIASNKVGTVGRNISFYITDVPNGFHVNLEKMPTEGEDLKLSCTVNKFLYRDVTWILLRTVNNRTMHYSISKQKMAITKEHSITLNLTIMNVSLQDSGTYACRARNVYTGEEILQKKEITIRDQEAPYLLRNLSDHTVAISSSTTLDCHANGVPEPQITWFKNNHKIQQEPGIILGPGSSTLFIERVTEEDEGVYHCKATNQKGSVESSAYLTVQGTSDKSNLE
Protocol: (§1) Binding to receptor extracellular domains was examined using soluble fusion proteins consisting of the extracellular domains of human VEGFR-1, VEGFR-2 or VEGFR-3 joined to the Fe portions of human IgG (referred to as VEGFR-1-Ig (R&D Systems), VEGFR-2-Ig and VEGFR-3-Ig) (Achen et al, Proc. Natl. Acad. Sci. USA 95 548-553, 1998). Protein-A sepharose beads were incubated overnight with the conditioned media of 293EBNA cells expressing VEGFR-1-Ig, VEGFR-2-Ig or VEGFR-3-Ig to precipitate the soluble receptor constructs. The soluble receptors bound to protein-A sepharose beads were recovered by centrifugation (5 minutes, 250×g, 4° C.) and washed twice with binding buffer (0.5% (w/v) BSA, 0.02% (v/v) Tween 20, 10 μg/ml heparin in phosphate buffered saline). The soluble receptors bound to protein-A sepharose beads were then incubated with the conditioned media of LoVo cells, that had been co-transfected with pVDAPEX FULL-N-FLAG and pcDNA3:furin, for three hours at room temperature, and washed twice with binding buffer. Proteins bound to the VEGFR-2-Ig and VEGFR-3-Ig constructs were analysed by reducing SDS-PAGE and Western blotting with a biotinylated antibody against the VHD of human VEGF-D (R&D Systems), followed by Streptavidin-horse radish peroxidase conjugate (Zymed).

[6] = target: T2, extracellular domain of human VEGFR-3 (VEGFR-3-Ig) (Homo sapiens, UniProt P35916); assay: Precipitation with soluble receptor VEGFR-3-Ig from LoVo conditioned media; type: binding; conditions: conditioned media of LoVo cells co-transfected with VEGF-D-FULL-N-FLAG and furin
T2 construct: soluble fusion proteins consisting of the extracellular domains of human VEGFR-1, VEGFR-2 or VEGFR-3; made in house; host or cells: 293EBNA cells (conditioned media, captured on protein-A sepharose)
T2 sequence (P35916 25-775 limits assumed): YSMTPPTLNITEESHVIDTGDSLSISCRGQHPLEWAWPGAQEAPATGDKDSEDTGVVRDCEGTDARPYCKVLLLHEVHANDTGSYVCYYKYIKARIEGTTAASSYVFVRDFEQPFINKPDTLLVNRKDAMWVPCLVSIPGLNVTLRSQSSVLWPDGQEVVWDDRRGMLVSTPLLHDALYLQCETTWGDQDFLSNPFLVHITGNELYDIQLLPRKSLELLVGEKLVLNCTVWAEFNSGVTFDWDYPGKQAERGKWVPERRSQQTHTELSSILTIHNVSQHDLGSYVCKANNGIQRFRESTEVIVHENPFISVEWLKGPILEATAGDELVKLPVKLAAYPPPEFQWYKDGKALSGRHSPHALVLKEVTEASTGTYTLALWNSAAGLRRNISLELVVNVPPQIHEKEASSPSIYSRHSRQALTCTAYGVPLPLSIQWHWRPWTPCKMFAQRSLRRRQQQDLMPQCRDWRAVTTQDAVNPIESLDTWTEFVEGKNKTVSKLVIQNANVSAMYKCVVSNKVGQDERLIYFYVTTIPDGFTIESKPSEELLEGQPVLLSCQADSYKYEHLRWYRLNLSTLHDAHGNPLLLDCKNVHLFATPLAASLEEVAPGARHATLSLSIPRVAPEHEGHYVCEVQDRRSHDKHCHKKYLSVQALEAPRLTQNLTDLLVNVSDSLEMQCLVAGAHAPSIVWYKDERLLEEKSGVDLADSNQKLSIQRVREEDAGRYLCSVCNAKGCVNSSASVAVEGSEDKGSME
Protocol: as §1

[7] = target: T3, extracellular domain of human VEGFR-2 (VEGFR-2-Ig) (Homo sapiens, UniProt P35968); assay: Precipitation with soluble receptor VEGFR-2-Ig from LoVo conditioned media; type: binding; conditions: conditioned media of LoVo cells co-transfected with VEGF-D-FULL-N-FLAG and furin
T3 construct: soluble fusion proteins consisting of the extracellular domains of human VEGFR-1, VEGFR-2 or VEGFR-3; made in house; host or cells: 293EBNA cells (conditioned media, captured on protein-A sepharose)
Protocol: as §1

[8] = target: T4, VEGFR-2 (as used in the biosensor analysis) (UniProt P35968 20-764); assay: SPR
T4 chain: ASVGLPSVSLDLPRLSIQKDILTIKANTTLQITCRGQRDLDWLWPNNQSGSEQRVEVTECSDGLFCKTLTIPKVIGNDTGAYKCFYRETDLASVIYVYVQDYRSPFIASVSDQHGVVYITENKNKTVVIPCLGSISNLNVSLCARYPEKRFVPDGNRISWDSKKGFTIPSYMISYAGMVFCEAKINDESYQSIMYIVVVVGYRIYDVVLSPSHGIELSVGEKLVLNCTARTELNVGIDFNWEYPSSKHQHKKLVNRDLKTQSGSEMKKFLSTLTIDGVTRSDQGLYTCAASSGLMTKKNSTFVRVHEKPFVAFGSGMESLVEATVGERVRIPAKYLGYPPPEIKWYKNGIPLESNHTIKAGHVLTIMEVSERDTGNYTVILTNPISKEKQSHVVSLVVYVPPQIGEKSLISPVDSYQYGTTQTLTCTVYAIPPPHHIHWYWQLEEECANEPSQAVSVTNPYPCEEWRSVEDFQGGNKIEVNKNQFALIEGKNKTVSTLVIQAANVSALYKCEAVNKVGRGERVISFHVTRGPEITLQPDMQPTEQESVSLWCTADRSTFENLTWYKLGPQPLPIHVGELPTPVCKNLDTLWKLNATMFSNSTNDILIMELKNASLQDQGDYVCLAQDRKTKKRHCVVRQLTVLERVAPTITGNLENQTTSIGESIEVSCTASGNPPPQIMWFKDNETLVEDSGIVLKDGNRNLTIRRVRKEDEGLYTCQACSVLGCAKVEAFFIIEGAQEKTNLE

[9] = target: T5, VEGFR-3 (as used in the biosensor analysis) (UniProt P35916 25-775); assay: SPR
T5 chain: T2 sequence (P35916 25-775 limits assumed)

[10] = target: VEGFR-2 (as used in the biosensor analysis) (UniProt P35968); assay: SPR biosensor, 1:1 Langmuir model; reference VEGF-DSSTS.IISS on the same receptor; the preparation held traces of processed forms
[11] = target: VEGFR-2 (Homo sapiens, UniProt P35968); assay: Biosensor analysis (surface plasmon resonance) of VEGF-D ligands on VEGFR-2; type: binding; conditions: 1:1 Langmurian model
Chain of VEGFR-2 (P35968 20-1356): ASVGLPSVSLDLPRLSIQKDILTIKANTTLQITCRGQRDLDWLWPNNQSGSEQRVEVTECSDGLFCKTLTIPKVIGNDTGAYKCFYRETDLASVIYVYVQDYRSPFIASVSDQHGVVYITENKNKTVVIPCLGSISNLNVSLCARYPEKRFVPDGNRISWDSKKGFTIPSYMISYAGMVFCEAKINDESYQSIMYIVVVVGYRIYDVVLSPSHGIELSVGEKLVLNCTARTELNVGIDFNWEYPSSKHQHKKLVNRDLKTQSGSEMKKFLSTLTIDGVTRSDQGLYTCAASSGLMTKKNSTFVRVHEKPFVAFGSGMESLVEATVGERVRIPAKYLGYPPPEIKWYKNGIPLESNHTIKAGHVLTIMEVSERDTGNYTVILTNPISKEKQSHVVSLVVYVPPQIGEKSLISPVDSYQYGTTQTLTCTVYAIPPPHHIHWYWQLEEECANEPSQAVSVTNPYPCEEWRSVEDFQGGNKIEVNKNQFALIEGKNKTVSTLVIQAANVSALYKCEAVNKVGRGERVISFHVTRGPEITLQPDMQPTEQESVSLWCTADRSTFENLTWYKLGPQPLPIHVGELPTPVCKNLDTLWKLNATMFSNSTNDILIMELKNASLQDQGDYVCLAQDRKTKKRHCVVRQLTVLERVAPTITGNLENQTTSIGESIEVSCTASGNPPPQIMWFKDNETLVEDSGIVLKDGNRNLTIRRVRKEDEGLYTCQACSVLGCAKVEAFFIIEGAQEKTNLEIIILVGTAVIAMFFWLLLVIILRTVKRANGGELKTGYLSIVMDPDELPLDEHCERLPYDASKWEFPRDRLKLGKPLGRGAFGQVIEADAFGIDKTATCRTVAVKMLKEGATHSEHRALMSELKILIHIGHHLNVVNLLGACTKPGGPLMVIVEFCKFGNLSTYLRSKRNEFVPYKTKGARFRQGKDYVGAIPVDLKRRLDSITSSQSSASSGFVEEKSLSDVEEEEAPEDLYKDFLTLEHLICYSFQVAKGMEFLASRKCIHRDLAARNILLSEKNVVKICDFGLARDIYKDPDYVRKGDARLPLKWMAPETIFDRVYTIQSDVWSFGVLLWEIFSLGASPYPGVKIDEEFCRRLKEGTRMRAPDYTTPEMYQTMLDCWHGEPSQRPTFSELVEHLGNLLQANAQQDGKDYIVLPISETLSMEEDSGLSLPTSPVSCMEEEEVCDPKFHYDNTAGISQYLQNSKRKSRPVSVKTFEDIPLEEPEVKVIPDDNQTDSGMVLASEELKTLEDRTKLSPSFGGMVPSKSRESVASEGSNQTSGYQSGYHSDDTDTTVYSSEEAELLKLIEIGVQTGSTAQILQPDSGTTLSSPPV
Protocol: To determine the relative affinities of the ligands VEGF-DSSTS.IISS, VEGF-D-FULL-N-FLAG and mature VEGF-D (designated VEGF-DΔNΔC) for VEGFR-2 and VEGFR-3, the relative binding kinetics for these interactions was analyzed by biosensor analysis using surface plasmon resonance detection (Nice et al., Bioessays, 21:339-352, 1999). The preparations of VEGF-DSSTS.IISS and VEGF-DΔNΔC used for this analysis each consisted of one VEGF-D species devoid of other forms of VEGF-D but the preparation of VEGF-D-FULL-N-FLAG did contain traces of partially processed as well as full-length material, reflecting the capacity of wild-type full-length VEGF-D to be proteolytically processed in the 293EBNA cell cultures) from which these proteins were purified (see FIG. 10B). The binding constants for the interactions were obtained by analysis of the initial dissociation phase to obtain the kd, which was then used to constrain a global analysis of the association region of the curves, using regions of the curves where a 1:1 Langmurian model appeared to be operative.

[12] = tested on: furin; assay: Knockdown of furin protein by shRNA (co-transfection of shRNA and furin expression constructs); type: cell-based, human
Description: Short hairpin RNA (shRNA) primers targeting furin RNA were designed using an in-house primer design algorithm. These primer pairs form the shRNA structure that then results in functional siRNA targeting sequences 457-476 and 558-575 of open reading frame of human furin sequence (Genbank Accession No. NM_002569.2, SEQ ID NO: 21). The underlined sections are structural motifs for the formation of the small hairpin RNA structure and for the ligation of the annealed primers to the parental vector. In bold the 5′-3′ upper strand of the target sequence which is naturally a part of the primer sequence.
The above shRNA primers were generated to target the sequences 5′-GACGATGGCATCGAGAAGAA-3′ (SEQ ID NO: 19) and 5′-ACA CAC AGA TGA ATG ACA A-3′ (SEQ ID NO: 20). Primers were annealed by heating a mix of 60 pM of both primers in 50 μl annealing buffer (0.1 M potassium acetate, 2 mM magnesium acetate, 30 mM HEPES pH 7.4) at 94° C. for 4 min then 70° C. for 10 min and allowed to cool to room temperature. Annealing was verified in 3% low melting point agarose gel. The shRNA construct was then ligated into pMSCVpac mU6 which is a derivative of pMSCV (Clontech). The shRNAs were validated by assessing reduction of furin protein levels resulting from co-transfections of shRNA and furin expression constructs in 293EBNA cells or other cell lines stably overexpressing furin.

Molecule: mature VEGF-D (designated VEGF-DΔNΔC) (from UniProt O43915 93-201) (ligand)
- fold greater apparent affinity than VEGF-DSSTS.IISS [1]: 17000 fold
- fold greater affinity than VEGF-DSSTS.IISS [2]: 18 fold

Molecule: mature VEGF-D (designated VEGF-DΔNΔC) (from UniProt O43915 93-201)
- Kd [3]: 8.7 nM
- Kd [4]: 44 nM

B1: mature form of VEGF-D generated by furin (ligand, human, UniProt O43915 89-205, looked up)
chain: FAATFYDIETLKVIDEEWQRTQCSPRETCVEVASELGKSTNTFFKPPCVNVFRCGGCCNEESLICMNTSTSYISKQLFEISVPLTSVPELVPVKVANHTGCKCLPTAPRHPYSIIRR
notes: range 89-205; Present in conditioned medium of LoVo cells co-transfected with pVDAPEX FULL-N-FLAG and pcDNA3:furin; not purified; also called ˜21 kDa VEGF-D species; mature VEGF-D
- binding result [5]: no binding

B2: mature form of VEGF-D generated by furin: ~21 kDa VEGF-D species from LoVo cells co-transfected with VEGF-D-FULL-N-FLAG and furin expression constructs (protein)
chain: B1 chain
- binding to the extracellular domain of VEGFR-3 [6]: binds
- binding to the extracellular domain of VEGFR-2 [7]: binds

B3: VEGF-D-FULL-N-FLAG (full-length VEGF-D tagged with FLAG at the N-terminus) (ligand)
chain: NEHGPVKRSSQSTLERSEQQIRAASSLEELLRITHSEDWKLWRCRLRLKSFTSMDSRSASHRSTRFAATFYDIETLKVIDEEWQRTQCSPRETCVEVASELGKSTNTFFKPPCVNVFRCGGCCNEESLICMNTSTSYISKQLFEISVPLTSVPELVPVKVANHTGCKCLPTAPRHPYSIIRRSIQIPEEDRCSHSKKLCPIDMLWDSNKCKCVLQEENPLAGTEDHSHLQEPALCGPHMMFDEDRCECVCKTPCPKDLIQHPKNCSCFECKESLETCCQKHKLFHPDTCSCEDRCPFHTRPCASGKTACAKHCRFPKEKRAAQGPHSRKNP
- Kd [8]: 1600 nM
- Kd [9]: 490 nM
- fold greater affinity than VEGF-DSSTS.IISS [10]: 94 fold

B4: VEGF-D-FULL-N-FLAG: full-length VEGF-D tagged with FLAG at the N-terminus; preparation contained traces of partially processed material (protein)
chain: B3 chain
modifications: left off: small tags and cut ends
notes: full-length VEGF-D tagged with FLAG at the N-terminus; preparation contained traces of partially processed material
- apparent affinity for VEGFR-2 relative to unprocessed mutant VEGF-DSSTS.IISS [11]: ~94 fold

B5: VEGF-DSSTS.IISS (ligand)
chain: B3 chain with R62S, R65S, R181S, R182S
- Kd [8]: 150000 nM
- Kd [9]: 790 nM

B6: Second shRNA pair: shRNA primer pair (SEQ ID NO:17 and 18) targeting bases 558-575 of human furin (nucleic acid)
chain 1: CACACAGATGAATGACAATTCAAGAGATTGTCATTCATCTGTGTGTTTTTT
chain 2: AATTAAAAAACACACAGATGAATGACAATCTCTTGAATTGTCATTCATCTGTGTG
- knockdown of protein expression in vitro [12]: 70-80%

B7: First primer pair: shRNA primer pair (SEQ ID NO:15 and 16) targeting bases 457-476 of human furin (nucleic acid)
chain 1: GACGATGGCATCGAGAAGAATTCAAGAGATTCTTCTCGATGCCATCGTCTTTTTT
chain 2: AATTAAAAAAGACGATGGCATCGAGAAGAATCTCTTGAATTCTTCTCGATGCCATCGTC
- knockdown of furin protein expression in vitro [12]: almost complete knockdown
